Earlier results as cited in publication PMC8469563.

Biological target: C1q (Homo sapiens) (UniProt P02745)
Chain of UniProt P02745 (P02745 23-245, chain 1 of 3): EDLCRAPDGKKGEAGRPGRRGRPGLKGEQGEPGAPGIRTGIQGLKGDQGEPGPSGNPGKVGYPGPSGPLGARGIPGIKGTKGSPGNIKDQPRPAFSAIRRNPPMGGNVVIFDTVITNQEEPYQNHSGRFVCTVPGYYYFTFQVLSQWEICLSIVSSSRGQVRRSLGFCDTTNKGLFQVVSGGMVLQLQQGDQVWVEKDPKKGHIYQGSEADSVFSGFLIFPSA
Chain of UniProt P02745 (P02746 28-253, chain 2 of 3, further chain): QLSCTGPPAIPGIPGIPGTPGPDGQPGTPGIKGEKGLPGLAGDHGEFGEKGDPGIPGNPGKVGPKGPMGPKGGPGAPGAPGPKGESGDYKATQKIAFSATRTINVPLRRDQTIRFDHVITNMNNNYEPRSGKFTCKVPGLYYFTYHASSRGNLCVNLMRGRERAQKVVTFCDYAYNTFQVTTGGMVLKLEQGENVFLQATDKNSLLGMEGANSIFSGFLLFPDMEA
Chain of UniProt P02745 (P02747 29-245, chain 3 of 3, further chain): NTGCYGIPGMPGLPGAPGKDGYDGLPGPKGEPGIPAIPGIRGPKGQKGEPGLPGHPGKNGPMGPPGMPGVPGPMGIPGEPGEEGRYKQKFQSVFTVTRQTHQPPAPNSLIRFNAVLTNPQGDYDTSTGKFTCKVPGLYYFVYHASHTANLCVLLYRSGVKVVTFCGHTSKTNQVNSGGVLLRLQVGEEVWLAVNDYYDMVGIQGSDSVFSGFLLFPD

- Kd: 200 nM
Substance: HMGB1 (from UniProt P09429)
